Results: paper PMC10939263 (2024)

B1: SRC kinase associated phosphoprotein 1 (SKAP1), wild type, N2-fused [human] / BLK, C1-fused [not stated] (parent complex)
chain 1: MQAAALPEEIRWLLEDAEEFLAEGLRNENLSAVARDHRDHILRGFQQIKARYYWDFQPQGGDIGQDSSDDNHSGTLGLSLTSDAPFLSDYQDEGMEDIVKGAQELDNVIKQGYLEKKSKDHSFFGSEWQKRWCVVSRGLFYYYANEKSKQPKGTFLIKGYGVRMAPHLRRDSKKESCFELTSQDRRSYEFTATSPAEARDWVDQISFLLKDLSSLTIPYEEDEEEEEKEETYDDIDGFDSPSCGSQCRPTILPGSVGIKEPTEEKEEEDIYEVLPDEEHDLEEDESGTRRKGVDYASYYQGLWDCHGDQPDELSFQRGDLIRILSKEYNMYGWWVGELNSLVGIVPKEYLTTAFEVEER
chain 2: not shown
B2: SRC kinase associated phosphoprotein 1 (SKAP1), wild type, N2-fused [human] / SRMS, C1-fused [not stated] (parent complex)
chain 1: B1 chain 1
chain 2: MEPFLRRRLAFLSFFWDKIWPAGGEPDHGTPGSLDPNTDPVPTLPAEPCSPFPQLFLALYDFTARCGGELSVRRGDRLCALEEGGGYIFARRLSGQPSAGLVPITHVAKASPETLSDQPWYFSGVSRTQAQQLLLSPPNEPGAFLIRPSESSLGGYSLSVRAQAKVCHYRVSMAADGSLYLQKGRLFPGLEELLTYYKANWKLIQNPLLQPCMPQKAPRQDVWERPHSEFALGRKLGEGYFGEVWEGLWLGSLPVAIKVIKSANMKLTDLAKEIQTLKGLRHERLIRLHAVCSGGEPVYIVTELMRKGNLQAFLGTPEGRALRLPPLLGFACQVAEGMSYLEEQRVVHRDLAARNVLVDDGLACKVADFGLARLLKDDIYSPSSSSKIPVKWTAPEAANYRVFSQKSDVWSFGVLLHEVFTYGQCPYEGMTNHETLQQIMRGYRLPRPAACPAEVYVLMLECWRSSPEERPSFATLREKLHAIHRCHP
B3: SRC kinase associated phosphoprotein 1 (SKAP1), wild type, N2-fused [human] / FYN (isoform without exon 7), C1-fused [not stated] (parent complex)
chain 1: B1 chain 1
chain 2: not shown
B4: SRC kinase associated phosphoprotein 1 (SKAP1), wild type, N2-fused [human] / FRK, C1-fused [not stated] (parent complex)
chain 1: B1 chain 1
chain 2: MSNICQRLWEYLEPYLPCLSTEADKSTVIENPGALCSPQSQRHGHYFVALFDYQARTAEDLSFRAGDKLQVLDTLHEGWWFARHLEKRRDGSSQQLQGYIPSNYVAEDRSLQAEPWFFGAIGRSDAEKQLLYSENKTGSFLIRESESQKGEFSLSVLDGAVVKHYRIKRLDEGGFFLTRRRIFSTLNEFVSHYTKTSDGLCVKLGKPCLKIQVPAPFDLSYKTVDQWEIDRNSIQLLKRLGSGQFGEVWEGLWNNTTPVAVKTLKPGSMDPNDFLREAQIMKNLRHPKLIQLYAVCTLEDPIYIITELMRHGSLQEYLQNDTGSKIHLTQQVDMAAQVASGMAYLESRNYIHRDLAARNVLVGEHNIYKVADFGLARVFKVDNEDIYESRHEIKLPVKWTAPEAIRSNKFSIKSDVWSFGILLYEIITYGKMPYSGMTGAQVIQMLAQNYRLPQPSNCPQQFYNIMLECWNAEPKERPTFETLRWKLEDYFETDSSYSDANNFIR
B5: SRC kinase associated phosphoprotein 1 (SKAP1), wild type, N2-fused [human] / LYN, C1-fused [not stated] (parent complex)
chain 1: B1 chain 1
chain 2: MGCIKSKGKDSLSDDGVDLKTQPVRNTERTIYVRDPTSNKQQRPVPESQLLPGQRFQTKDPEEQGDIVVALYPYDGIHPDDLSFKKGEKMKVLEEHGEWWKAKSLLTKKEGFIPSNYVAKLNTLETEEWFFKDITRKDAERQLLAPGNSAGAFLIRESETLKGSFSLSVRDFDPVHGDVIKHYKIRSLDNGGYYISPRITFPCISDMIKHYQKQADGLCRRLEKACISPKPQKPWDKDAWEIPRESIKLVKRLGAGQFGEVWMGYYNNSTKVAVKTLKPGTMSVQAFLEEANLMKTLQHDKLVRLYAVVTREEPIYIITEYMAKGSLLDFLKSDEGGKVLLPKLIDFSAQIAEGMAYIERKNYIHRDLRAANVLVSESLMCKIADFGLARVIEDNEYTAREGAKFPIKWTAPEAINFGCFTIKSDVWSFGILLYEIVTYGKIPYPGRTNADVMTALSQGYRMPRVENCPDELYDIMKMCWKEKAEERPTFDYLQSVLDDFYTATEGQYQQQP

Variants of: B1
Assay: luciferase complementation assay (normalized luciferase ratio, NLR); HEK293T cells; one experiment; read off a plot

ratio to parent | Variant
~1.8 | chain 1 W333K

Variants of: B2
Assay: as above

ratio to parent | Variant
~1.3 | chain 1 W333K

Variants of: B3
Assay: as above

ratio to parent | Variant
~1.2 | chain 1 W333K

Variants of: B4
Assay: as above

ratio to parent | Variant
~1.9 | chain 1 D120K
~1.2 | chain 1 W333K

Variants of: B5
Assay: as above

ratio to parent | Variant
~2 | chain 1 W333K
